Experimental data taken from PMC10082787, “The IgG4 hinge with CD28 transmembrane domain improves VHH-based CAR T cells targeting a membrane-distal epitope of GPC1 in pancreatic cancer” (Nature Communications, 2023).

B1: HM2 mouse monoclonal antibody (antibody, V domains shown)
VH: EVQLQQSGAELVRPGASVKLSCTASGFNIKDDYMHWVKQRPEQGLEWIGWIDPENGDTEYASKFQGKATITADTSSNTAYLQLSSLTSEDTAVYYCTRSSVGYWGQGTTLTVSS
VL: DVVMTQTPLSLPVSLGDQASISCRSSQSLVHSNGNTYLHWYLQKPGQSPKLLIYKVSNRFSGVPDRFSGSGSGTYFTLKISRVEAEDLGVYFCSQRTHVPYTFGGGTKLEIK
notes: heavy chain of mouse mAb HM2; light chain of mouse mAb HM2; Raised by immunising mice with the C-lobe region of GPC1; also called HM2 mAb; HM2 clone; source: mouse hybridoma; in supernatant and purified
B2: GPC1 protein (negative stain EM) (natural protein)
chain: DPASKSRSCGEVRQIYGAKGFSLSDVPQAEISGEHLRICPQGYTCCTSEMEENLANRSHAELETALRDSSRVLQAMLATQLRSFDDHFQHLLNDSERTLQATFPGAFGELYTQNARAFRDLYSELRLYYRGANLHLEETLAEFWARLLERLFKQLHPQLLLPDDYLDCLGKQAEALRPFGEAPRELRLRATRAFVAARSFVQGLGVASDVVRKVAQVPLGPECSRAVMKLVYCAHCLGVPGARPCPDYCRNVLKGCLANQADLDAEWRNLLDSMVLITDKFWGTSGVESVIGSVHTWLAEAINALQDNRDTLTAKVIQGCGNPKVNPQGPGPEEKRRRGKLAPRERPPSGTLEKLVSEAKAQLRDVQDFWISLPGTLCSEKMALSTASDDRCWNGMARGRYLPEVMGDGLANQINNPEVEVDITKPDMTIRQQIMQLKIMTNRLRSAYNGNDVDFQDASDDGSGSGSGDGCLDDLCSRKVSRKSSSSRTPLTHALPGLSEQEGQKTS
notes: glypican-1 protein mixed 1:1 with HM2 Fab or D4-LR for negative stain EM; It may be the His-tagged or the hFc-fused protein of the other experiments
B3: recombinant human GPC1-hFc protein (Fc fusion)
chain: B2 chain
notes: glypican-1, human, fused to human Fc
B4: D4 dromedary camel VHH nanobody (VHH)
VHH: QVQLVESGGGLVQPGGSLRLSCVASGYSYSIGYMAWFRQAPGKERAWVASRYTGDGGAVFDDAVKGRFTTSQESAGNTFDLQMDSLKPEDTAMYYCAAKGPGFGRWEYWGRGTQVTVSS
notes: D4 VHH; His tag used to load the Ni-NTA biosensor; FLAG used for detection in ELISA and flow cytometry; also called D4 antibody; D4 VHH
B5: clone 1–12-IgG4H-CD28TM CAR (other)
VH: AVTLDESGGGLQTPGRALSLVCKASGFTFSRYAMYWVRQAPGKGLEFVAGIGNTGRYTGYGSAVKGRATISRDSGQSTVRLQLNNLRAEDTGNYYCAKSVSPYCCDAADIDAWGHGTEVIVST
VL: ALTQPASVSANPGETVKITCSGGSSGYAYGWYQQKSPGSAPVTLLYSNNNRPSDIPSRFSGSKSGSTATLTITGVQAEDEAVYFCGSVDSSSYAGIFGAGTTLTV
notes: scFv of the anti-GPC1 mAb clone 1–12; CD28 transmembrane domain (CD28TM); 4-1BB costimulatory domain; intracellular CD3ζ; also called clone 1–12 CAR; source: human T cells from PBMCs, lentivirally transduced; on cells

Legend:
GPC1 peptide 53 = target: T1, GPC1 peptide 53 (Homo sapiens, UniProt P35052); assay: ELISA; 53 overlapping 18-mer GPC1 peptides coated at 5 μg/ml in PBS overnight; 1 μg/ml of HM2 or D4 added; conditions: both partners purified
T1 construct: peptide no; 53 of 53 overlapping GPC1 peptides, 18 amino acids long, 9 overlapped with the adjacent peptide; source: synthetic peptide (Genscript)
T1 chain: DGCLDDLCSRKVSRKSSS

His-tagged GPC1 protein = target: T2, His-tagged GPC1 protein (Homo sapiens, UniProt P35052); assay: BLI; Octet RED96; His-tagged GPC1 immobilised on Ni-NTA biosensor, HM2 in solution; association 600 s, dissociation 1800 s; conditions: both partners purified
T2 construct: glypican-1, human, His-tagged protein immobilised on the Ni-NTA biosensor; also called human GPC1

[1] = target: T3, human glypican-4 (GPC4), recombinant protein (Homo sapiens, UniProt O75487); assay: ELISA; plates coated with human GPC1 through GPC6; mouse hybridoma supernatant with 1 μg/ml of each mAb; detected with goat anti-mouse IgG-HRP; conditions: one partner purified
T3 construct: glypican-4, human, recombinant protein coated on ELISA plates; source: bought: R&D Systems

[2] = target: T4, human glypican-6 (GPC6), recombinant protein (Homo sapiens (Human)., UniProt Q9Y625); assay: as above; conditions: one partner purified
T4 construct: glypican-6, human, recombinant protein coated on ELISA plates; source: bought: R&D Systems

[3] = target: T5, human glypican-5 (GPC5), recombinant protein (Homo sapiens, UniProt P78333); assay: as above; conditions: one partner purified
T5 construct: glypican-5, human, recombinant protein coated on ELISA plates; source: bought: R&D Systems

[4] = target: T6, human glypican-3 (GPC3), recombinant protein (Homo sapiens, UniProt P51654); assay: as above; conditions: one partner purified
T6 construct: glypican-3, human, recombinant protein coated on ELISA plates; source: bought: R&D Systems

[5] = target: T7, human glypican-2 (GPC2), recombinant protein (Homo sapiens (Human)., UniProt Q8N158); assay: as above; conditions: one partner purified
T7 construct: glypican-2, human, recombinant protein coated on ELISA plates; source: bought: R&D Systems

D4-LR immunotoxin = D4-LR immunotoxin (Camelus dromedarius | Pseudomonas); assay: negative stain EM; conditions: both partners purified
D4-IgG4H-CD28TM CAR = target: T8, D4-IgG4H-CD28TM CAR (Camelus dromedarius | human | ); assay: flow cytometry on cells; CAR T cells stained with GPC1-hFc at 5 μg/ml and goat anti-human IgG-PE; conditions: one partner purified
T8 construct: CD28 transmembrane domain (CD28TM); 4-1BB costimulatory domain; intracellular CD3ζ; Dimer by non-reducing western blot; also called D4-IgG4H only CAR; D4-IgG4H CAR; source: human T cells from PBMCs, lentivirally transduced; on cells and in lysate

D4-CD8H-CD28TM CAR = target: T9, D4-CD8H-CD28TM CAR (Camelus dromedarius | ); assay: as above; conditions: one partner purified
T9 construct: CD8 hinge (CD8H), 45 amino acids; CD28 transmembrane domain (CD28TM); 4-1BB costimulatory domain; intracellular CD3ζ; also called pMH402; source: human T cells from PBMCs, lentivirally transduced; on cells and in lysate

D4-CD8H-CD8TM CAR = target: T10, D4-CD8H-CD8TM CAR (Camelus dromedarius | ); assay: as above; conditions: one partner purified
T10 construct: CD8 hinge (CD8H), 45 amino acids; CD8 transmembrane region (CD8TM); 4-1BB costimulatory domain; intracellular CD3ζ; also called D4 CAR; pMH305; source: human T cells from PBMCs, lentivirally transduced; on cells and in lysate

D4-IgG4H-CD8TM CAR = target: T11, D4-IgG4H-CD8TM CAR (Camelus dromedarius | human | ); assay: as above; conditions: one partner purified
T11 construct: CD8 transmembrane region (CD8TM); 4-1BB costimulatory domain; intracellular CD3ζ; Dimer by non-reducing western blot; also called pMH382; source: human T cells from PBMCs, lentivirally transduced; on cells and in lysate

[6] = target: T3, human glypican-4 (GPC4), recombinant …; assay: ELISA; D4 nanobody at 1 μg/ml on human GPC1 through GPC6 and mouse GPC1 proteins; detected with anti-FLAG-HRP; the legend calls it monoclonal phage ELISA; conditions: both partners purified
[7] = target: T4, human glypican-6 (GPC6), recombinant …; assay: as above; conditions: both partners purified
[8] = target: T5, human glypican-5 (GPC5), recombinant …; assay: as above; conditions: both partners purified
[9] = target: T6, human glypican-3 (GPC3), recombinant …; assay: as above; conditions: both partners purified
[10] = target: T7, human glypican-2 (GPC2), recombinant …; assay: as above; conditions: both partners purified
[11] = target: T12, mouse glypican-1 (GPC1) protein (Mus musculus (Mouse)., UniProt Q9QZF2); assay: as above; conditions: both partners purified
T12 construct: glypican-1, mouse, protein used in the ELISA of D4; also called mouse GPC1; murine GPC1

GPC1 peptide 15 = target: T13, GPC1 peptide 15 (Homo sapiens, UniProt P35052); assay: ELISA; 53 overlapping 18-mer GPC1 peptides coated at 5 μg/ml in PBS overnight; 1 μg/ml of HM2 or D4 added; conditions: both partners purified
T13 construct: peptide no; 15 of 53 overlapping GPC1 peptides, 18 amino acids long, 9 overlapped with the adjacent peptide; source: synthetic peptide (Genscript)
T13 chain: LYYRGANLHLEETLAEFW

GPC1 peptide 14 = target: T14, GPC1 peptide 14 (Homo sapiens, UniProt P35052); assay: as above; conditions: both partners purified
T14 construct: peptide no; 14 of 53 overlapping GPC1 peptides, 18 amino acids long, 9 overlapped with the adjacent peptide; source: synthetic peptide (Genscript)
T14 chain: FRDLYSELRLYYRGANLH

[12] = target: B3; assay: BLI; Octet RED96; His-tagged D4 loaded on Ni-NTA biosensor, serially diluted human GPC1-hFc in solution; conditions: both partners purified
[13] = target: B3; assay: flow cytometry on cells; CAR T cells stained with GPC1-hFc at 5 μg/ml and goat anti-human IgG-PE; conditions: one partner purified

T3 sequence (O75487 19-529): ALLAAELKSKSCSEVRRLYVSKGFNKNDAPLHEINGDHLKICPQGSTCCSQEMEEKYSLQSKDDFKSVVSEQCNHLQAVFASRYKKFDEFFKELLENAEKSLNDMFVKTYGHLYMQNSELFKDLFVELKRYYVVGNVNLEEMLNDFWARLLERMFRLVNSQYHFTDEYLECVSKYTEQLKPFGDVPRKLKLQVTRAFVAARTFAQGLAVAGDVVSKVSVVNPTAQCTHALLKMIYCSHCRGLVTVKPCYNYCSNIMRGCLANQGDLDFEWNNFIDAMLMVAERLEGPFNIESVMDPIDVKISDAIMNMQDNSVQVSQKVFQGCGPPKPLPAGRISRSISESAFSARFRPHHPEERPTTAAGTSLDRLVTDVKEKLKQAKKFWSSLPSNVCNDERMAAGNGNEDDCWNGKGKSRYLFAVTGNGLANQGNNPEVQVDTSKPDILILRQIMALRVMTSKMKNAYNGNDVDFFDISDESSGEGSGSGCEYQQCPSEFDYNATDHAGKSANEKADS
T7 sequence (Q8N158 24-554): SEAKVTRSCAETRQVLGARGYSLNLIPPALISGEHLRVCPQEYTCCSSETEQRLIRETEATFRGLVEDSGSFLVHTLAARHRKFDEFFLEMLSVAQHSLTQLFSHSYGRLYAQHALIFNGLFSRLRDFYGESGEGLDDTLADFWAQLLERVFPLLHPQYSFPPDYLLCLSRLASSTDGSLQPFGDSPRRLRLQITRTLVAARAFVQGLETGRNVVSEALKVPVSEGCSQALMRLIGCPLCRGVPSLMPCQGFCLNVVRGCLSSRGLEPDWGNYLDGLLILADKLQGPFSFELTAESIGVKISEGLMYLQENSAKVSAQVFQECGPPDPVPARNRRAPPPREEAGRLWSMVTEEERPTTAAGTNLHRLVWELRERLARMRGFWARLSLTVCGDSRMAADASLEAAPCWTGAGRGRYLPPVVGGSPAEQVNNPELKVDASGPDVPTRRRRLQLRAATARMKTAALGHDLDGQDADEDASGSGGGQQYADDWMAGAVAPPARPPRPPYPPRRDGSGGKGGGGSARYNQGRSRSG
T4 sequence (Q9Y625 24-529): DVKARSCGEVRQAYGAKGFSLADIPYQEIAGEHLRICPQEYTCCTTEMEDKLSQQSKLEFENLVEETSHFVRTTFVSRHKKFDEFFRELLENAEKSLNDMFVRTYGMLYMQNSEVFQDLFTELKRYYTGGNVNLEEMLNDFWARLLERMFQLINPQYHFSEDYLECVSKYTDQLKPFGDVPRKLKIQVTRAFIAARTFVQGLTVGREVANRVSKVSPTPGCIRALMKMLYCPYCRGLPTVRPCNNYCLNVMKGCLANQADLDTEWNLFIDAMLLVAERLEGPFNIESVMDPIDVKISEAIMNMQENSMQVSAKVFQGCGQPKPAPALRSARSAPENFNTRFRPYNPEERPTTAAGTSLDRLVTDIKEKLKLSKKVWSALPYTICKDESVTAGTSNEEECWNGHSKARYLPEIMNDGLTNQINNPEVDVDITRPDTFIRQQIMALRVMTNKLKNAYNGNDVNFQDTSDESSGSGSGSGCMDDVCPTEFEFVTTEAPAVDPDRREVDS
T6 sequence (P51654 25-580): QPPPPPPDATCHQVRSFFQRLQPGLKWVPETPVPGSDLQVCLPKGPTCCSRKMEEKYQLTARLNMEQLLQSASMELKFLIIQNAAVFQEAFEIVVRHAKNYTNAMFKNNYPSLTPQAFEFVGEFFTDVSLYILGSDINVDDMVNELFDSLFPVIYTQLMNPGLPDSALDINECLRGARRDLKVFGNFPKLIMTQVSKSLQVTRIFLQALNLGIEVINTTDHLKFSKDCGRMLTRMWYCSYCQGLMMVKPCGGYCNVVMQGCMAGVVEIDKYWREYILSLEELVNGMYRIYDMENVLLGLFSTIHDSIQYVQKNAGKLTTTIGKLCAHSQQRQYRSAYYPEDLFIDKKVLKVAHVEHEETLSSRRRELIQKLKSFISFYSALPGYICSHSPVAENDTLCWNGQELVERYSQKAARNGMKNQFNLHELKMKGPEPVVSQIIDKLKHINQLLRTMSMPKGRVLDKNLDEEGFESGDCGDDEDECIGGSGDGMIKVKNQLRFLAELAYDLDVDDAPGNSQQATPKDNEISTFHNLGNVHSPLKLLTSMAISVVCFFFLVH
T5 sequence (P78333 25-572): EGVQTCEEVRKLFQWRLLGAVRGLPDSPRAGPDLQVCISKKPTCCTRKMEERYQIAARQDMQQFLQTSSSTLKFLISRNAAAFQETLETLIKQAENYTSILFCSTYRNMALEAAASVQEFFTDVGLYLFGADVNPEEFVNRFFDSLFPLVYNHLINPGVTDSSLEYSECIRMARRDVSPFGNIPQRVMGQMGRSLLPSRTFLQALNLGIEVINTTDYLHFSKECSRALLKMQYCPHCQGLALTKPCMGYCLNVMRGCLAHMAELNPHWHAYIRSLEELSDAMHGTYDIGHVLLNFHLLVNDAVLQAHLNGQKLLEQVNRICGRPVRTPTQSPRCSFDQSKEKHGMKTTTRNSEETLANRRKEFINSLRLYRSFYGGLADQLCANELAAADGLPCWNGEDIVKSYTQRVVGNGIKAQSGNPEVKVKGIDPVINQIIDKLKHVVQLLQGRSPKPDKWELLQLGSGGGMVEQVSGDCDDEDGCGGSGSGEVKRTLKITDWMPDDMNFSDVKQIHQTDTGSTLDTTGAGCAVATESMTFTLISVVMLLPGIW
T2 sequence (P35052 whole entry, looked up): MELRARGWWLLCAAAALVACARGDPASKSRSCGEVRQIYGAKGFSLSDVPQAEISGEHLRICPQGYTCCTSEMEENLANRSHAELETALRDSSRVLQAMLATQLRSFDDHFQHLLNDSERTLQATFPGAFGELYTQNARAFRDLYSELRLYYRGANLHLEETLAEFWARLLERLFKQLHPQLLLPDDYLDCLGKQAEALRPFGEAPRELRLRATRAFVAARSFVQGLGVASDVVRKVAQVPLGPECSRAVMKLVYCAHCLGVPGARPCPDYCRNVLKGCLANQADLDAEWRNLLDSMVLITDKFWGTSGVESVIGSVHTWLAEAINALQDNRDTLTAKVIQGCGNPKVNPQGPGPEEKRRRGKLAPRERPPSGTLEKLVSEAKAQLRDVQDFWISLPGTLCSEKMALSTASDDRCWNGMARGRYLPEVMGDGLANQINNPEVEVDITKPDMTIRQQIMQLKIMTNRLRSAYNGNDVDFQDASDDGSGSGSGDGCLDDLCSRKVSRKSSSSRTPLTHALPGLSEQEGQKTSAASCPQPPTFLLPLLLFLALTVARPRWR

With B1 the binding result (GPC1 peptide 53) was “binds”, the Kd (His-tagged GPC1 protein) was 0.4 nM and the binding result [1] was “no binding (tested: 1 μg/ml)”. B1: no binding (tested: 1 μg/ml) [2]; no binding (tested: 1 μg/ml) [3]; no binding (tested: 1 μg/ml) [4]. B1: no binding (tested: 1 μg/ml) [5].

B2: binds (D4-LR immunotoxin).

B3: binds (D4-IgG4H-CD28TM CAR); binds (D4-CD8H-CD28TM CAR); binds (D4-CD8H-CD8TM CAR). B3: binds (D4-IgG4H-CD8TM CAR).

B4: no binding (tested: 1 μg/ml) [6]; no binding (tested: 1 μg/ml) [7]; no binding (tested: 1 μg/ml) [8]. B4: no binding (tested: 1 μg/ml) [9]; no binding (tested: 1 μg/ml) [10]; binds [11]. For the same binder, the binding result (GPC1 peptide 15) was “binds”, the binding result (GPC1 peptide 14) was “binds” and the Kd [12] was 0.7 nM.

B5: binds [13].
